From patent US6428997B1, “Aminopeptidase derived from Bacillus licheniformis and process for preparation of natural type proteins” (LG Chemical Ltd., priority 1997, dated 2002)

Key:
[1] = test system: CC(C)C[C@H](N)C(=O)Nc1ccc([N+](=O)[O-])cc1; test: purified protein, by the assay type; settings: other: Tris-Cl pH 8.0, 37° C., measured by same experiment, Lineweaver-Burk plot
Description: (§1) Precisely, 1 U of enzyme activity defines the enzyme quantity changing 1 absorbance at 405 nm which is measured by the process adding aminopeptidase in 1 ml solution of 100M Tris-Cl (pH 8.0) and 2 mM leucine-p-nitroanilide (Sigma, USA), incubating at 37° C. for 1 min, then adding 100 μl of 70% acetic acid to stop the reaction. At that time leucine-p-nitroanilide was dissolved in dimethylsulfoxide (DMSO) to make 100 mM solution.
(§2) In order to compare substrate specificity of aminopeptidase of this invention, 2 kinds of substrate were used. In detail, one was synthetic substrates of p-nitroanilide derivative and purchased from Sigma, USA and the other was oligopeptide such as methionyl oligopeptide of SEQ. ID. NO: 1 which have amino acid sequence similar to N-terminus of methionyl HGH and leucyl oligopeptide of SEQ. ID. NO: 2.
(§3) Enzyme reaction of aminopeptidase was performed by the process described in Reference Examples. At that time p-nitroanilide derivative was used as synthetic substrate. Leucine p-nitroanilide was used as substrate to perform the reaction in concentration of 0.03125, 0.0625, 0.125, 0.25, 0.5, 1 mM and methionine p-nitroanilide in 0.125, 0.25, 0.5, 1 mM and aminopeptidase in 0.5 U respectively. Above reactions using leucine-p-nitroanilide proceeded for 2 min and methionine-p-nitroanilide for 40 min. Then 70% acetic acid was added to stop the reactions and absorbance at 405 nm was measured. The product concentration was measured by adopting absorbance constant ε405=9450M^−1 cm^−1.
(§4) In reaction condition mentioned above, initial velocity of enzyme reaction was measured with varying the substrate concentration. Lineweaver-Burk plot was used to determine Km value and Maximum reaction velocity of aminopeptidase from Bacillus licheniformis. In addition kcat and kcat/Km was determined by using Km value and maximum reaction velocity described above.

[2] = test system: CSCC[C@H](N)C(=O)Nc1ccc([N+](=O)[O-])cc1; test: purified protein, by the assay type; settings: other: Tris-Cl pH 8.0, 37° C., measured by same experiment, Lineweaver-Burk plot
Description: as §1, §2, §3, §4

Substance: Aeromonas proteolytica (Vibrio proteolytica) aminopeptidase (Vibrio proteolyticus)
- Km [1]: 240 µM
- kcat [1]: 48 s⁻¹
- kcat/Km [1]: 200000 M⁻¹ s⁻¹
- Km [2]: 942 µM
- kcat [2]: 2.64 s⁻¹
- kcat/Km [2]: 2800 M⁻¹ s⁻¹
